Patent US20240115704A1, “TREATMENT OF CANCER WITH NK CELLS AND A CD38-TARGETED ANTIBODY” (Artiva Biotherapeutics, Inc., priority 2021, published 2024)

Target: CD38 (human) (UniProt P28907)
Experiment: cell-based or functional assay

daratumumab (antibody)
ADCC (percent specific lysis) of MM.1R multiple myeloma cells by AB-101, 0.31:1 E:T, 2 µg/mL daratumumab, 4 h: 4.88% | ADCC (percent specific lysis) of MM.1R multiple myeloma cells by AB-101, 10:1 E:T, 2 µg/mL daratumumab, 4 h: 42.4% | ADCC (percent specific lysis) of MM.1S multiple myeloma cells by AB-101, 0.31:1 E:T, 2 µg/mL daratumumab, 4 h: 2.34% | ADCC (percent specific lysis) of MM.1S multiple myeloma cells by AB-101, 10:1 E:T, 2 µg/mL daratumumab, 4 h: 19.8% | ADCC (percent specific lysis) of NCI-H929 multiple myeloma cells by AB-101, 0.31:1 E:T, 2 µg/mL daratumumab, 4 h: 3.38% | ADCC (percent specific lysis) of NCI-H929 multiple myeloma cells by AB-101, 10:1 E:T, 2 µg/mL daratumumab, 4 h: 46.4% | ADCC (percent specific lysis) of RPMI 8226 multiple myeloma cells by AB-101, 0.31:1 E:T, 2 µg/mL daratumumab, 4 h: 8.75% | ADCC (percent specific lysis) of RPMI 8226 multiple myeloma cells by AB-101, 10:1 E:T, 2 µg/mL daratumumab, 4 h: 58.2% | complement-dependent cytotoxicity of Daudi cells with human complement serum: daratumumab concentration at which lysis was saturated: < 0.41 µg/mL | daratumumab-mediated ADCC (percent specific lysis) of Daudi cells by AB-101, 10:1 E:T, 2 µg/mL daratumumab, 4 h: 79.5%
